In this series the test system is Escherichia coli TOP10. The series can be described thus: shrunken log2 fold change of peptide-encoding DNA abundance (4.5 h post-induction vs induction); higher = less antimicrobial activity (less host growth inhibition). Particulars: time post-induction: 4.5 h; library: site-saturation at positions 5, 18, 19, 20.
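Note: peptides expressed intracellularly from a pBAD plasmid library in pooled LB shake-flask culture, induced with 0.3% L-arabinose, DNA abundance read by NGS, three biological replicates, DESeq2 with apeglm shrinkage.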

Consider RRIRYRPPRLPRPRPRPHIAPRP, for which the “shrunken log2 fold change” value was -0.408.
Regarding RRIRNRPPRLPRPRPRPYRCPRP, the “shrunken log2 fold change” value is -0.153.
In the case of RRIRQRPPRLPRPRPRPPYNPRP it was -0.154.
In the case of RRIRQRPPRLPRPRPRPEMKPRP, the “shrunken log2 fold change” value is -0.0789.
RRIRSRPPRLPRPRPRPRIAPRP: the “shrunken log2 fold change” value amounted to 0.174.
RRIRERPPRLPRPRPRPDTLPRP: the “shrunken log2 fold change” value is -0.00753.
Regarding RRIRERPPRLPRPRPRPVMPPRP, the “shrunken log2 fold change” value is -0.259.
Take RRIRERPPRLPRPRPRPRQKPRP: the “shrunken log2 fold change” value turned out to be 0.0386.
Take RRIRLRPPRLPRPRPRPWKKPRP: the “shrunken log2 fold change” value is -0.279.
RRIRVRPPRLPRPRPRPPKKPRP: the “shrunken log2 fold change” value worked out at 0.167.
On to RRIRNRPPRLPRPRPRPNMQPRP, for which the “shrunken log2 fold change” value was -0.184.
As for RRIRWRPPRLPRPRPRPWVEPRP, the “shrunken log2 fold change” value is 0.0386.
Consider RRIRMRPPRLPRPRPRPPWIPRP, for which the “shrunken log2 fold change” value was found to be 0.248.
As to RRIRYRPPRLPRPRPRPSRAPRP, the “shrunken log2 fold change” value is -0.113.
Turning to RRIRNRPPRLPRPRPRPPIEPRP, the “shrunken log2 fold change” value was determined as 0.0957.
On to RRIRARPPRLPRPRPRPRYFPRP, for which the “shrunken log2 fold change” value is -0.0939.
In the case of RRIRMRPPRLPRPRPRPHCCPRP it was -0.0266; in that of RRIRARPPRLPRPRPRPMPKPRP, 0.411; in that of RRIRHRPPRLPRPRPRPHWRPRP, 0.125.
Turning to RRIRLRPPRLPRPRPRPLSIPRP, the “shrunken log2 fold change” value is -0.722.
The same measure for RRIRVRPPRLPRPRPRPKPRPRP: 0.638; for RRIRYRPPRLPRPRPRPGKLPRP: -0.0944; for RRIRIRPPRLPRPRPRPFMRPRP: 0.0516.
On to RRIRDRPPRLPRPRPRPKQQPRP, for which the “shrunken log2 fold change” value is -0.053.
As to RRIRQRPPRLPRPRPRPIWAPRP, the “shrunken log2 fold change” value is -0.0792.
As to RRIRFRPPRLPRPRPRPAAQPRP, the “shrunken log2 fold change” value was found to be 0.122.
For the sequence RRIRSRPPRLPRPRPRPKKPPRP, the “shrunken log2 fold change” value was found to be 0.0165.
In the case of RRIRIRPPRLPRPRPRPFALPRP, the “shrunken log2 fold change” value is -0.178.
In the case of RRIRPRPPRLPRPRPRPRASPRP it was 0.548; in that of RRIRIRPPRLPRPRPRPINHPRP, -0.683.
Turning to RRIRRRPPRLPRPRPRPLMRPRP, the “shrunken log2 fold change” value was 1.07.
On to RRIRNRPPRLPRPRPRPETRPRP, for which the “shrunken log2 fold change” value was determined as 0.254.
Regarding RRIRPRPPRLPRPRPRPPMSPRP, the “shrunken log2 fold change” value is -0.0803.
The same measure for RRIRPRPPRLPRPRPRPMPRPRP: 0.238; for RRIRYRPPRLPRPRPRPWLWPRP: 0.0662.
For RRIRVRPPRLPRPRPRPAHRPRP, the “shrunken log2 fold change” value is -0.0183.
As for RRIRERPPRLPRPRPRPCWLPRP, the “shrunken log2 fold change” value was -0.0175.
For RRIRNRPPRLPRPRPRPAAHPRP, the “shrunken log2 fold change” value was -0.00675.
As to RRIRCRPPRLPRPRPRPRNFPRP, the “shrunken log2 fold change” value was -0.0465.
With RRIRARPPRLPRPRPRPFWHPRP, the “shrunken log2 fold change” value is 0.165.
As to RRIRRRPPRLPRPRPRPTKFPRP, the “shrunken log2 fold change” value was found to be 0.0982.
On to RRIRDRPPRLPRPRPRPCYDPRP, for which the “shrunken log2 fold change” value was -0.129.
In the case of RRIRYRPPRLPRPRPRPGRIPRP it was 0.0959.
RRIRVRPPRLPRPRPRPWGFPRP: the “shrunken log2 fold change” value came out at 0.0189.
RRIRARPPRLPRPRPRPSCNPRP: the “shrunken log2 fold change” value was -0.515.
The same measure for RRIRHRPPRLPRPRPRPGGPPRP: -0.355; for RRIRDRPPRLPRPRPRPSMVPRP: -0.24.
The same measure for RRIRKRPPRLPRPRPRPPWYPRP: 0.131; for RRIRSRPPRLPRPRPRPRWDPRP: 0.197; for RRIRMRPPRLPRPRPRPTLWPRP: 0.968.
